Results on 69 molecules are retold here after US20170189504A1.

For the assay, the target named is HLA-A*24 (human). Nature of the assay: UV-ligand exchange, anti-b2m ELISA. Background: In an ELISA, binding on a coated surface is turned into a signal by an enzyme label.
Molecule TYGDAGLTYTF [SEQ ID NO: 283 peptide …] displayed a peptide exchange yield of 50 to 75%.

For KYMVYPQTF [SEQ ID NO: 267 peptide …], the peptide exchange yield was greater than 75%.

The molecule IYLVSIPEL [SEQ ID NO: 161 peptide …] displayed a peptide exchange yield greater than 75%.

In turn, IFPQFLYQF [SEQ ID NO: 186 peptide …] registered a peptide exchange yield greater than 75%.

Consider TYTTVPRVAF [SEQ ID NO: 172 peptide …], for which the peptide exchange yield is greater than 75%.

On to VYPWLGALL [SEQ ID NO: 177 peptide …], for which the peptide exchange yield was greater than 75%.

Regarding DYLKGLASF [SEQ ID NO: 163 peptide …], the peptide exchange yield is greater than 75%.

Consider LYNKGFIYL [SEQ ID NO: 159 peptide …], for which the peptide exchange yield was greater than 75%.

Turning to YYLEVGKTLI [SEQ ID NO: 211 peptide …], the peptide exchange yield is greater than 75%.

With VYTLDIPVL [SEQ ID NO: 160 peptide …], the peptide exchange yield was greater than 75%.

VHIPEVYLI [SEQ ID NO: 205 peptide …] showed a peptide exchange yield of 50 to 75%.

Molecule EYINQGDLHEF [SEQ ID NO: 275 peptide …] yielded a peptide exchange yield of 50 to 75%.

With LYHDIFSRL [SEQ ID NO: 271 peptide …], the peptide exchange yield was greater than 75%.

The molecule RYLNKAFHI [SEQ ID NO: 284 peptide …] gave a peptide exchange yield of 50 to 75%.

As to IFLDYEAGTLSF [SEQ ID NO: 227 peptide …], the peptide exchange yield was greater than 75%.

In turn, QYSSVFKSL [SEQ ID NO: 216 peptide …] had a peptide exchange yield greater than 75%.

YYVYIMNHL [SEQ ID NO: 225 peptide …] gave a peptide exchange yield of 50 to 75%.

For the molecule VFTSTARAF [SEQ ID NO: 183 peptide …], the peptide exchange yield was in the range of 50 to 75%.

Regarding TYIESASEL [SEQ ID NO: 279 peptide …], the peptide exchange yield is 50 to 75%.

The molecule FFPPTRQMGLLF [SEQ ID NO: 217 peptide …] displayed a peptide exchange yield greater than 75%.

Molecule EYPLVINTL [SEQ ID NO: 219 peptide …] came in with a peptide exchange yield of 50 to 75%.

Molecule KYTSWYVAL [SEQ ID NO: 228 peptide …] displayed a peptide exchange yield greater than 75%.

Turning to YFDKVVTL [SEQ ID NO: 215 peptide YFDKVVTL], the peptide exchange yield was 20 to 49%.

Take LYLDKATLI [SEQ ID NO: 198 peptide …]: the peptide exchange yield was in the range of 50 to 75%.

On to VYRDETGELF [SEQ ID NO: 226 peptide …], for which the peptide exchange yield lay in the range of 50 to 75%.

In turn, LFIPSSKLLFL [SEQ ID NO: 171 peptide …] had a peptide exchange yield of 50 to 75%.

RYISDQLFTNF [SEQ ID NO: 278 peptide …] had a peptide exchange yield greater than 75%.

In the case of TYIKPISKL [SEQ ID NO: 273 peptide …], the peptide exchange yield was 50 to 75%.

For VFKASKITF [SEQ ID NO: 191 peptide …], the peptide exchange yield was 50 to 75%.

For QYLQDAYSF [SEQ ID NO: 272 peptide …], the peptide exchange yield is greater than 75%.

Turning to IYTMIYRNL [SEQ ID NO: 210 peptide …], the peptide exchange yield is greater than 75%.

RYPDNLKHL [SEQ ID NO: 286 peptide …] registered a peptide exchange yield of 20 to 49%.

For the molecule LYLDIINLF [SEQ ID NO: 181 peptide …], the peptide exchange yield is greater than 75%.

The molecule MYDSYWRQF [SEQ ID NO: 179 peptide …] had a peptide exchange yield greater than 75%.

Molecule LYLKLWNLI [SEQ ID NO: 214 peptide …] returned a peptide exchange yield of 50 to 75%.

Take YYVESGKLF [SEQ ID NO: 166 peptide …]: the peptide exchange yield was greater than 75%.

TYTQDFNKF [SEQ ID NO: 208 peptide …] gave a peptide exchange yield of 50 to 75%.

On to VYVSDIQEL [SEQ ID NO: 288 peptide …], for which the peptide exchange yield was 50 to 75%.

Take IYDDSFIRPVTF [SEQ ID NO: 180 peptide …]: the peptide exchange yield was in the range of 50 to 75%.

Take TYLRDQHFL [SEQ ID NO: 187 peptide …]: the peptide exchange yield was greater than 75%.

On to IFIEVFSHF [SEQ ID NO: 178 peptide …], for which the peptide exchange yield lay in the range of 50 to 75%.

In the case of RYFKGLVF [SEQ ID NO: 188 peptide RYFKGLVF], the peptide exchange yield lay in the range of 50 to 75%.

WYVNGVNYF [SEQ ID NO: 189 peptide …] returned a peptide exchange yield of 20 to 49%.

On to RYSTGLAGNLL [SEQ ID NO: 221 peptide …], for which the peptide exchange yield fell in the range of 50 to 75%.

In turn, KFVDSTFYL [SEQ ID NO: 282 peptide …] displayed a peptide exchange yield greater than 75%.

As to EFGSLHLEFL [SEQ ID NO: 194 peptide …], the peptide exchange yield was less than 20%.

On to HYSQELSLLYL [SEQ ID NO: 158 peptide …], for which the peptide exchange yield is greater than 75%.

VFQNFPLLF [SEQ ID NO: 184 peptide …] displayed a peptide exchange yield greater than 75%.

The molecule RFHPTPLLL [SEQ ID NO: 193 peptide …] registered a peptide exchange yield greater than 75%.

RYPDNLKHLYL [SEQ ID NO: 280 peptide …] had a peptide exchange yield greater than 75%.

IYSWILDHF [SEQ ID NO: 173 peptide …]: the peptide exchange yield is greater than 75%.

The molecule IYQLDTASI [SEQ ID NO: 182 peptide …] returned a peptide exchange yield of 50 to 75%.

FYSRLLQKF [SEQ ID NO: 203 peptide …]: the peptide exchange yield is 50 to 75%.

Molecule VYGFQWRHF [SEQ ID NO: 276 peptide …] returned a peptide exchange yield greater than 75%.

As for QYLENLEKL [SEQ ID NO: 224 peptide …], the peptide exchange yield fell in the range of 50 to 75%.

Take GFFIFNERF [SEQ ID NO: 190 peptide …]: the peptide exchange yield was in the range of 50 to 75%.

On to KYQDILETI [SEQ ID NO: 168 peptide …], for which the peptide exchange yield was greater than 75%.

For the molecule VYEDQVGKF [SEQ ID NO: 170 peptide …], the peptide exchange yield fell in the range of 20 to 49%.

The molecule AYTLIAPNI [SEQ ID NO: 169 peptide …] returned a peptide exchange yield of 50 to 75%.

Consider EYQENFLSF [SEQ ID NO: 206 peptide …], for which the peptide exchange yield was in the range of 50 to 75%.

NYINRILKL [SEQ ID NO: 167 peptide …] returned a peptide exchange yield greater than 75%.

Take AYLHSHALI [SEQ ID NO: 274 peptide …]: the peptide exchange yield is greater than 75%.

The molecule KFSSFSLFF [SEQ ID NO: 164 peptide …] showed a peptide exchange yield of 50 to 75%.

Turning to KYPVEWAKF [SEQ ID NO: 289 peptide …], the peptide exchange yield was greater than 75%.

With VFTRVSSFL [SEQ ID NO: 162 peptide …], the peptide exchange yield fell in the range of 50 to 75%.

On to SYALLTYMI [SEQ ID NO: 192 peptide …], for which the peptide exchange yield was greater than 75%.

With DYTTWTALL [SEQ ID NO: 165 peptide …], the peptide exchange yield was greater than 75%.

Turning to KYIPYKYVI [SEQ ID NO: 223 peptide …], the peptide exchange yield lay within 50 to 75%.

For the molecule IYKVGAPTI [SEQ ID NO: 185 peptide …], the peptide exchange yield is 50 to 75%.
